{"source": "patent US20210380994A1", "about": "“LACTOCOCCUS LACTIS EXPRESSION SYSTEM FOR DELIVERING PROTEINS EFFICACIOUS FOR THE TREATMENT OF EPITHELIAL BARRIER FUNCTION DISORDERS” (Second Genome, Inc., priority 2018, published 2021)", "key": {"[1]": {"tested_on": "C57BL/6 mice treated with DSS", "assay": "therapeutic DSS model of inflammatory bowel disease, treatment after 7 days DSS (Examples 5, 13B)", "type": "in vivo", "conditions": "for body weight change: 50 nmoles/kg, day 11, p<0.05; for colon weight to length ratio: p<0.01", "procedure": "Following a 7-day acclimation period, the mice were provided with drinking water containing 2.5% DSS for 7 days. Fresh 2.5% DSS water was prepared every 2 days during the 7 day DSS administration. For this therapeutic DSS study, SG-11 used to treat the animals was fused at its N-terminus to a FLAG Tag (DYKDDDDK; SEQ ID NO:32).\nOn day 7, normal drinking water was restored and i.p. treatments of 50 nmole/kg of SG-11 ([…]) or Gly2-GLP2 (0.2 mg/kg) were initiated. Treatments were administered twice a day (b.i.d.), with a morning and evening dose (every 8 and 16 hours) for six days.\nBody weight was measured daily during the morning treatment. The colon tissue was then harvested and length was measured in centimeters and the tissue was weighed. Fecal material was flushed from the colon and residual PBS removed by gently running the colon tissue through a pair of forceps. The colon tissue was then weighed and colon weight to length ratio in mg/mm was determined. Following weight measurements proximal and distal colon tissue was banked for RNA and protein analysis and the remaining tissues was fixed in 10% neutral buffered formalin for histopathology. Statistical analysis was performed by a one-way ANOVA compared to DSS+vehicle for serum 4KDa-FITC translocation, scrum LBP concentrations, colon length, and colon weight to length ratio, while a two-way ANOVA was performed for analysis of body weight. In all analysis, a Fisher's LSD test for multiple comparisons was used. Graphs represent data pooled from two experiments, and are plotted as mean±SEM.\nHistopathology analysis was performed on proximal and distal colon tissues from the therapeutic DSS model described above. Proximal (FIG. 13A) and distal (FIG. 13B) colon scores (range 0-4) are presented as well as the total score for the colon which represents the sum of proximal and distal colon scores (Range 0-8) (FIG. 13C). LMA=Loss of mucosal architecture, Edema=Edema, INF=Inflammation, TMI=Transmural inflammation, MH=Mucosal hyperplasia, DYS=Dysplasia. Graphs represent data pooled from two independent experiments, and are plotted as mean±SEM. Statistical analysis was performed by a one-way ANOVA compared to DSS+vehicle followed by a Fisher's LSD test for multiple comparisons.\nIn the second experiment (Example 13B), mice were provided with drinking water containing 2.5% DSS for 7 days. […] Treatments were administered twice a day (b.i.d.), with a morning and evening dose (every 8 and 16 hours) for 4 days. For both the prophylactic and therapeutic models, fresh 2.5% DSS water was prepared every 2 days during the DSS administration.\n(§1) At the end of each DSS model study, mice were fasted for 4 hours and then orally gavaged with 600 mg/kg 4KDa dextran labeled with FITC [4KDa-FITC]. One hour after the 4KDa-FITC gavage, mice were euthanized, blood was collected, and FITC signal was measured in serum. […] Data in both graphs are plotted as mean±SEM and each figure represent data from an individual experiment (n=10 per group).\nUpon completion of the OSS models above. LBP levels were measured as an inflammation centric readout of barrier function following the protocol detailed in Example 5. Upon completion of both DSS models (Examples 13A and 13B), blood was collected and serum was isolated. LPS binding protein (LBP) levels were measured in serum using a commercially available ELISA Kit (Enzo Lift Sciences)."}, "[2]": {"tested_on": "C57BL/6 mice treated with DSS", "assay": "concurrent (prophylactic) DSS model of inflammatory bowel disease (Examples 4, 13A)", "type": "in vivo", "conditions": "for 4KDa-FITC signal in serum: Example 13, first model, SG-11 (SEQ ID NO:9) 50 nmoles/kg i.p. b.i.d. (FIG. 18A, p=0.04), SG-11V5 (printed FIG. 18B, p=0.21)", "procedure": "On day six, mice were fasted for four hours and then orally gavaged with 600 mg/kg 4KDa dextran labeled with fluorescein isothiocyanate (FITC) [4KDa-FITC]. One hour after the 4KDa-FITC gavage, mice were euthanized, blood was collected, and FITC signal was measured in serum. […] The magnitude of 4KDa-FITC dextran translocation observed for SG-11 was similar to the positive control of Gly2-GLP2. Results are shown in FIG. 3, and are presented as mean±SEM. The graph in FIG. 3 represents data pooled from 3 independent experiments, each using 10 mice (n=30).\nSG-11 was also assessed for its effects on the levels of lipopolysaccharide (LPS) binding protein (LBP) in the blood of the DSS animal with and without SG-11 administration. LBP, which has been linked to clinical disease activity in subjects with inflammatory bowel disease, was also measured by […] in the serum of mice tested in the DSS model described in this Example. […] Results are shown in FIG. 4, and are presented as mean±SEM. The graph in FIG. 4 represents data pooled from 3 independent experiments (n=30; each experiment using 10 mice).\nBody weight was measured daily from mice included in the DSS model described in this Example. Percent change from starting weight on day 0 was determined for each mouse. […] Weight loss in mice treated with SG-11 at day 6 was similar to weight loss observed with Gly2-GLP2. The graph in FIG. 5 represents data pooled from two independent experiments (n=20; each experiment using 10 mice).\nGross pathology observations were made in mice included in the concurrent DSS model performed in this Example. […] No differences in clinical scores were observed between mice given DSS and treated with either Gly2-GLP2 or SG-11. The scoring system used was: (0)=no gross pathology, (1)=streaks of blood visible in feces, (2)=completely bloody fecal pellets, (3) bloody fecal material visible in cecum, (4) bloody fecal material in cecum and loose stool, (5)=rectal bleeding. The graph in FIG. 6 represents data pooled from 3 independent experiments (n=30; each experiment using 10 mice).\nIn addition, histopathology analysis was performed on proximal and distal colon tissues from the DSS model animals. […] LMA Loss of mucosal architecture, Edema=Edema, INF=Inflammation. TMI=Transmural inflammation, MH=Mucosal hyperplasia, DYS=Dysplasia. Graphs represent data pooled from two independent experiments, and are plotted as mean±SEM. Statistical analysis was performed by a one-way ANOVA compared to DSS+vehicle followed by a Fisher's LSD test for multiple comparisons.\nColon length was measured in mice included in the DSS model described above. […] The graphs in FIGS. 8A and 8B represent data pooled from 3 independent experiments (n=30). Data are graphed as mean SEM and are pooled from three independent experiments (n=30; each experiment using 10 mice). Statistical analysis was performed by a one-way ANOVA followed by a Fisher's LSD multiple comparisons test.\nBriefly, in the first DSS mouse model (Example 13A), mice were treated on day zero with test compound intraperitoneally (i.p.) and 6 hours later DSS treatment was initiated. Doses administered included 50 nmoles/kg for SG-11 (SEQ ID NO:9) ([…]), and Gly2-GLP2 (0.2 mg/kg), and a dose response for SG-11V5 (SEQ ID NO:19) including 16 nmoles/kg ([…]), 50 nmoles/kg ([…]) and 158 nmoles/kg (4.0 mg/kg). […] Therapeutic protein treatments were administered twice a day for the duration of the DSS exposure.\nas §1\nUpon completion of the OSS models above. […]"}, "[3]": {"conditions": "Example 5, 50 nmole/kg i.p. b.i.d. six days after 7 days DSS"}, "[4]": {"conditions": "Example 13B, 50 nmole/kg i.p. b.i.d. 4 days after 7 days DSS"}, "[5]": {"conditions": "Example 4, 50 nmoles/kg i.p. b.i.d."}, "[6]": {"conditions": "Example 4, 50 nmoles/kg i.p. b.i.d., vs DSS + vehicle"}}, "data": [{"molecule": "SG-11: Roseburia hominis protein comprising SEQ ID NO:3; tested as SEQ ID NO:5, SEQ ID NO:7 or FLAG-tagged SEQ ID NO:9 (protein, listed as Rosburia hominis) LEGEESVVYVGKKGVIASLDVETLDQSYYDETELKSYVDAEVEDYTAEHGKNAVKVESLKVEDGVAKLKMKYKTPEDYTAFNGIELYQGKVVASLAAGYVYDGEFARVEEGKVVGAATKQDIYSEDDLKVAIIRANTDVKVDGEICYVSCQNVKLTGKDSVSIRDGYYLETGSVTASVDVTGQESVGTEQLSGTEQMEMTGEPVNADDTEQTEAAAGDGSFETDVYTFIVYK", "values": [{"measurement": "histopathology: inflammation and transmural inflammation scores", "setting": "[1]; Example 5", "result": "no change"}, {"measurement": "histopathology: loss of mucosal architecture score", "setting": "[1]; Example 5", "result": "modest, but significant reduction"}, {"measurement": "body weight", "setting": "[1]; [3]", "result": "significant improvements"}, {"measurement": "colon length", "setting": "[1]; [3]", "result": "significant improvements"}, {"measurement": "colon weight to length", "setting": "[1]; [3]", "result": "significant improvements"}, {"measurement": "serum LBP", "setting": "[1]; Example 5, 50 nmole/kg i.p. b.i.d. six days after 7 days DSS, FLAG-tagged SG-11", "result": "no reduction in LBP"}, {"measurement": "frequency of thick colons", "setting": "[1]; Example 5, DSS+vehicle 88%, p<0.0001", "result": 25, "unit": "%"}, {"measurement": "colon length", "setting": "[1]; Example 13B (FIG. 22B)", "result": "significant increase in the colon length"}, {"measurement": "serum LBP", "setting": "[1]; [4]", "result": "no reduction in LBP"}, {"measurement": "body weight change", "setting": "[1]; Example 13B", "result": "statistically improved body weight changes"}, {"measurement": "colon weight to length ratio", "setting": "[1]; Example 13B", "result": "significantly improved colon weight to length ratios"}, {"measurement": "colon length", "setting": "[2]; [5]", "result": "prevented colon shortening elicited by DSS"}, {"measurement": "colon weight to length ratio", "setting": "[2]; [5]", "result": "significant improvement in colon weight to length ratios"}, {"measurement": "histopathology: edema score of colon", "setting": "[2]; [5]", "result": "reduced edema to a similar level as Gly2-GLPs, though the difference did not reach statistical significance"}, {"measurement": "4KDa-FITC dextran translocation across the epithelial barrier (serum)", "setting": "[2]; Example 4, 50 nmoles/kg i.p. b.i.d., 2.5% DSS 6 days, vs DSS + vehicle", "result": "significant reduction in 4KDa-FITC dextran"}, {"measurement": "body weight", "setting": "[2]; [6]", "result": "significantly improved body weight"}, {"measurement": "gross pathology (clinical score 0-5)", "setting": "[2]; [6]", "result": "significantly improved gross pathology"}, {"measurement": "serum LPS binding protein (LBP) concentration", "setting": "[2]; [6]", "result": "significant reduction in LBP"}, {"measurement": "4KDa-FITC signal in serum", "setting": "[2]", "result": "significantly reduced the 4KDa-FITC signal"}, {"measurement": "colon length", "setting": "[2]; Example 13A (FIG. 22A)", "result": "significant increase in the colon length"}]}, {"molecule": "SG-11V5: variant of SEQ ID NO:7 with N53S, N83S, C147V, C151S (protein, Artificial variant of SG-11 (N53S, N83S, C147V, C151S)) MLEGEESVVYVGKKGVIASLDVETLDQSYYDETELKSYVDAEVEDYTAEHGKSAVKVESLKVEDGVAKLKMKYKTPEDYTAFSGIELYQGKVVASLAAGYVYDGEFARVEEGKVVGAATKQDIYSEDDLKVAIIRANTDVKVDGEIVYVSSQNVKLTGKDSVSIRDGYYLETGSVTASVDVTGQESVGTEQLSGTEQMEMTGEPVNADDTEQTEAAAGDGSFETDVYTFIVYK", "values": [{"measurement": "colon length", "setting": "[1]; Example 13B (FIG. 22B)", "result": "significant increase in the colon length"}, {"measurement": "serum LBP", "setting": "[1]; [4]", "result": "no reduction in LBP"}, {"measurement": "body weight change", "setting": "[1]; Example 13B", "result": "statistically improved body weight changes"}, {"measurement": "colon weight to length ratio", "setting": "[1]; Example 13B", "result": "significantly improved colon weight to length ratios"}, {"measurement": "4KDa-FITC signal in serum", "setting": "[2]", "result": "reduced the 4KDa-FITC signal, although the difference did not reach statistical significance"}, {"measurement": "gross pathology (clinical score 0-5)", "setting": "[2]; Example 13, 160 nmoles/kg dose, p<0.002", "result": "significant improvement"}, {"measurement": "colon length", "setting": "[2]; Example 13A (FIG. 22A)", "result": "significant increase in the colon length"}, {"measurement": "body weight", "setting": "[2]; Example 13A, 158 nmoles/kg, day 6", "result": "significant improvement in body weight"}, {"measurement": "serum LBP", "setting": "[2]; Example 13A, 158 nmoles/kg, p=0.003", "result": "significant reduction in LBP production"}]}]}
